Source: patent publication US12545899B2, “Luciferase enzymes for use with thermostable luciferins in bioluminescent assays” (Promega Corporation, priority 2018, dated 2026)

Tests used:
[1] = Effect of V300G, L305F, S306P on activity with CS0333 (FIG. 13); format: biochemical; conditions: 1 mM ATP; 100 nM to 1 mM substrate; Bright-Glo buffer
Experimental: FIG. 13 includes a representative graph of the effects of amino acid substitutions V300G, L305F, and S306P on enzyme activity with the CS0333 analog. Reagent compositions included […]+1 mM ATP+100 nM to 1 mM substrate in Bright-Glo™ buffer.

[2] = Brightness of additional luciferase enzyme variants with CS0280; format: biochemical; conditions: Table 7A, 1 mM CS0280
How it was run: (§1)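 Each variant at 0.005 mg/ml combined with 1 mM ATP plus 1 mM substrate in Bright-Glo or Detection Reagent buffer; luminescence recorded as relative brightness.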

[3] = Kinetic analysis of ATG-3707, ATG-4117 with CS0280; format: biochemical
Experimental: (§2) Kinetic tests of these luciferase enzyme variants were also conducted. […] Reagent compositions included 0.005 mg/ml luciferase enzyme variant+1 mM ATP, and 0.1 fM to 1 mM substrate in Bright-Glo™ (BG) or Detection Reagent (DR) buffers. The composition was incubated for 3 mins and read on GloMax® Multi+platform.
(§3) Table 8 below includes representative results of kinetic analysis of the thermostable luciferase variants of Ppe (SEQ ID NO: 1), ATG-3707, and ATG-4117. The Ppe variant (SEQ ID NO: 1) was tested with D/L-luciferin, and ATG-3707, and ATG-4117 were tested with CS0280 and CS0333.

[4] = Kinetic analysis of ATG-3707, ATG-4117 with CS0333; format: biochemical
Experimental: as §2, §3

[5] = Brightness of additional luciferase enzyme variants with CS0333; format: biochemical; conditions: Table 7A, 1 mM CS0333
How it was run: as §1

[6] = Kinetic analysis of Ppe variant, ATG-3707, ATG-4117 with D/L-luciferin; format: biochemical
Experimental: as §2, §3

[7] = Differential scanning fluorimetry (DSF) analysis; format: physicochemical; set-up: key to DSF Tm: melting temperature in °C (heated 30-95 °C at 1 °C/min); conditions: Table 7A
How it was run: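 Enzymes mixed with Sypro Orange at 5× final, heated 30–95° C at 1° C per minute with fluorescence read every 60 s. Storage buffer 50 mM HEPES pH 7.5, 100 mM NaCl, 2 mM EDTA, or for luciferase variants 20 mM HEPES pH 7.5, 200 mM NaCl, 1 mM EDTA; per-minute fluorescence change plotted against temperature.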

[8] = Inhibition of luciferase enzyme variants by dehydro-F-luciferin; format: biochemical; conditions: Detection reagent buffer or Bright-Glo buffer (FIGS. 20, 21)
Experimental: Reagent compositions include 0.022 μM-366.97 μM Dehydro F-luciferin titration, 1 mM ATP, 1 μM F-luciferin, and 0.005 mg/ml enzyme. […] Both amino acid substitutions L305F and S306P conferred improved resistance to the inhibitor individually and in combination.

B1: ATG-3549: SEQ ID NO: 14; H244W+T344A+I396K+V300G (protein)
chain: MADKNILYGPEPFYPLEDGTAGEQMFDALSRYAAIPGCIALTNAHTKENVLYEEFLKLSCRLAESFKKYGLKQNDTIAVCSENSLQFFLPVIASLYLGIIVAPVNDKYIERELIHSLGIVKPRIVFCSKNTFQKVLNVKSKLKSIETIIILDLNEDLGGYQCLNNFISQNSDSNLDVKKFKPYSFNRDDQVASIMFSSGTTGLPKGVMLTHKNIVARFSIAKDPTFGNAINPTSAILTVIPFHWGFGMMTTLGYFTCGFRVVLMHTFEEKLFLQSLQDYKVESTLLVPTLMAFLAKSALGEKYDLSHLKEIASGGAPLSKEIGEMVKKRFKLNFVRQGYGLTEATSAVLITPKGDAKPGSTGKIVPLHAVKVVDPTTGKILGPNEPGELYFKGPMKMKGYYNNEEATKAIIDNDGWLRSGDIAYYDNDGHFYIVDRLKSLIKYKGYQVAPAEIEGILLQHPYIVDAGVTGIPDEAAGELPAAGVVVQTGKYLNEQIVQDYVASQVSTAKWLRGGVKFLDEIPKGSTGKIDRKVLRQMLEKHTNGHHHHHHHH
[1]
  activity with CS0333 relative to Ppe variant (SEQ ID NO: 1): improved activity

B2: C7573H3: SEQ ID NO: 70; H244W+T344A+I396K+S193A+N228D+L305F+S306P+I109V+A316W (protein)
chain: MADKNILYGPEPFYPLEDGTAGEQMFDALSRYAAIPGCIALTNAHTKENVLYEEFLKLSCRLAESFKKYGLKQNDTIAVCSENSLQFFLPVIASLYLGIIVAPVNDKYIERELIHSLGIVKPRIVFCSKNTFQKVLNVKSKLKSIETIIILDLNEDLGGYQCLNNFISQNSDSNLDVKKFKPYSFNRDDQVASIMFSSGTTGLPKGVMLTHKNIVARFSIAKDPTFGNAINPTSAILTVIPFHWGFGMMTTLGYFTCGFRVVLMHTFEEKLFLQSLQDYKVESTLLVPTLMAFLAKSALVEKYDFSHLKEIASGGAPLSKEIGEMVKKRFKLNFVRQGYGLTETTSAVLITPKGDAKPGSTGKIVPLHAVKVVDPTTGKILGPNEPGELYFKGPMIMKGYYNNEEATKAIIDNDGWLRSGDIAYYDNDGHFYIVDRLKSLIKYKGYQVAPAEIEGILLQHPYIVDAGVTGIPDEAAGELPAAGVVVQTGKYLNEQIVQDYVASQVSTAKWLRGGVKFLDEIPKGSTGKIDRKVLRQMLEKHTNGHHHHHHHH
[2]; Bright-Glo buffer
  Fold-improvement over ATG3707, CS0280 BG: 6.04
[2]; Detection Reagent buffer
  Fold-improvement over ATG3707, CS0280 DR: 7.48
[3]; BrightGlo
  Km: 13 µM
  Vmax (RLU): 7,188,109 RLU
[3]; Detection Reagent
  Km: 419 µM
  Vmax (RLU): 7,879,793 RLU
[4]; BrightGlo
  Km: 12.4 µM
  Vmax (RLU): 1,601,921 RLU
[4]; Detection Reagent
  Km: 758 µM
  Vmax (RLU): 124,964 RLU
[5]; Bright-Glo buffer
  Fold-improvement over ATG3707, CS0333 BG: 4.35
[5]; Detection Reagent buffer
  Fold-improvement over ATG3707, CS0333 DR: 3.36
[6]; BrightGlo
  Km: 0.0702 µM
  Vmax (RLU): 719,605 RLU
[6]; Detection Reagent
  Km: 2.65 µM
  Vmax (RLU): 817,287 RLU
[7]
  DSF Tm: 61

B3: ATG-2624: SEQ ID NO: 3; I240L+Y254S+T344A+I396K (protein)
chain: MADKNILYGPEPFYPLEDGTAGEQMFDALSRYAAIPGCIALTNAHTKENVLYEEFLKLSCRLAESFKKYGLKQNDTIAVCSENSLQFFLPVIASLYLGIIVAPVNDKYIERELIHSLGIVKPRIVFCSKNTFQKVLNVKSKLKSIETIIILDLNEDLGGYQCLNNFISQNSDSNLDVKKFKPYSFNRDDQVASIMFSSGTTGLPKGVMLTHKNIVARFSIAKDPTFGNAINPTSAILTVLPFHHGFGMMTTLGSFTCGFRVVLMHTFEEKLFLQSLQDYKVESTLLVPTLMAFLAKSALVEKYDLSHLKEIASGGAPLSKEIGEMVKKRFKLNFVRQGYGLTEATSAVLITPKGDAKPGSTGKIVPLHAVKVVDPTTGKILGPNEPGELYFKGPMKMKGYYNNEEATKAIIDNDGWLRSGDIAYYDNDGHFYIVDRLKSLIKYKGYQVAPAEIEGILLQHPYIVDAGVTGIPDEAAGELPAAGVVVQTGKYLNEQIVQDYVASQVSTAKWLRGGVKFLDEIPKGSTGKIDRKVLRQMLEKHTNGHHHHHHHH
[8]
  inhibition by dehydro-F-luciferin relative to Ppe variant (SEQ ID NO: 1): inhibited by dehydro-F-luciferin, but less so
